Measured values: patent US20180155451A1 (published 2018)

T1: FcγRIIb extracellular domain with C-terminal His tag (human, UniProt P31994 43-217)
T1 construct: extracellular domain; Soluble receptor expressed in FreeStyle293 cells and used as analyte in Biacore; also called FcgRIIb; 2b; not shown: His tag at the C terminus
T1 sequence (looked up): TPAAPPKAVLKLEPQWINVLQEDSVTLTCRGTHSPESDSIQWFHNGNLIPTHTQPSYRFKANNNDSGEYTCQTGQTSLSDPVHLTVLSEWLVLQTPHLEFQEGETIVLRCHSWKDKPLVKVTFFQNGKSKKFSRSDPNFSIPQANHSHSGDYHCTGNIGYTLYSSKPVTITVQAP

T2: FcγRIIa R (FcγRIIa, allotype R: Arg at position 131) extracellular domain with C-terminal His tag (human, UniProt P12318 34-217)
T2 construct: extracellular domain; also called FcgRIIa R; 2aR; not shown: His tag at the C terminus
T2 sequence (looked up): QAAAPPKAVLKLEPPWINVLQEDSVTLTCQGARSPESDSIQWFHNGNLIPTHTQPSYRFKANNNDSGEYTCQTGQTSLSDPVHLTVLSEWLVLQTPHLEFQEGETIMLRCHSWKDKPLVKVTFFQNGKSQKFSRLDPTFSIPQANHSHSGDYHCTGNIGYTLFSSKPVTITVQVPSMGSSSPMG


What was measured:
[1] = biological target: T3, FcγRIa extracellular domain with C-terminal His tag (human, UniProt P12314 16-292); experiment: SPR Biacore, relative binding amount
T3 construct: extracellular domain; Soluble receptor expressed in FreeStyle293 cells and used as analyte in Biacore; also called FcgRI; 1a; not shown: His tag at the C terminus

[2] = biological target: T1, FcγRIIb extracellular domain with …; experiment: SPR Biacore, relative binding amount
[3] = biological target: T2, FcγRIIa R (FcγRIIa, allotype R: Arg at …); experiment: SPR Biacore, antibody captured, FcgR analyte; vs HeCon Ab GpH7-A5/GpH7-B3/GpL16-k0 = 100
[4] = biological target: T2, FcγRIIa R (FcγRIIa, allotype R: Arg at …); experiment: ratio He/Con_2aR : He/Con_2b (FcgRIIa R over FcgRIIb), SPR Biacore
Experimental: The heterodimerized antibodies He Abs in which one of the H chains was introduced with an alteration were assayed for their binding activities to each activating FcγR and inhibitory FcγR according to the method described in Example 4. […] The activating FcγRs in FIGS. 26, 27, 28, and 29 are FcγRIa, FcγRIIa (R), FcγRIIa (H), and FcγRIIIa, respectively.
Analysis of interaction between objective antibody and the FcγR was carried out using Biacore T100 (GE Healthcare). HBS-EP+ (GE Healthcare) was used as the running buffer, and the measurement temperature was set to 25° C. Chips produced by immobilizing the antigen peptide by the amine coupling method to a Series S Sencor Chip CM5 (GE Healthcare), or alternatively, chips produced by allowing preliminarily biotinylated antigen peptides to interact with and immobilize onto a Series S Sensor Chip SA (certified) (GE Healthcare) were used. Antibodies of interest were captured onto an antigen peptide-immobilized chip, and allowed to interact to each FcγR diluted with running buffer. To regenerate and repeatedly use the chip, the antibodies captured on the chip were washed off by reacting 10 mM glycine-HCl, pH 1.5.

T3 sequence (P12314 16-292): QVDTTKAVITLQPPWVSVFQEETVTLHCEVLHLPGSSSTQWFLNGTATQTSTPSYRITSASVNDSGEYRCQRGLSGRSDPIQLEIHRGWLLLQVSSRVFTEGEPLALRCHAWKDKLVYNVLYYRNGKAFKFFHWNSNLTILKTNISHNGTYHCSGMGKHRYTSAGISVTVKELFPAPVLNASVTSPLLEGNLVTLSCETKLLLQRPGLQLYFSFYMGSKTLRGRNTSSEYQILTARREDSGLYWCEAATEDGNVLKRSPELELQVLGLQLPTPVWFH

| Binder | He/Con_1a [1] | He/Con_2b [2] | He/Con_2aR [3] [control = 100] | He_2aR/2b (IIaR/IIb) [4] |
| --- | --- | --- | --- | --- |
| heterodimerized antibody GpH7-A5/GpH7-B3 variant K334_01G/GpL16-k0 (antibody, human IgG1, kappa, Substitution in only one H chain (GpH7-B3 side); also called He Ab) heavy 1: not shown heavy 2: not shown light: DIVMTQSPLSLPVTPGEPASISCQASESLVHSNRNTYLHWYLQKPGQSPQLLIYKVSNRFSGVPDRFSGSGSGTDFTLKISRVEAEDVGVYYCSQNTHVPPTFGQGTKVEIERTVAAPSVFIFPPSDEQLKSGTASVVCLLNNFYPREAKVQWKVDNALQSGNSQESVTEQDSKDSTYSLSSTLTLSKADYEKHKVYACEVTHQGLSSPVTKSFNRGEC | 104 % of GpH7-A5/GpH7-B3/GpL16-k0 (=100) | 92.5 % of GpH7-A5/GpH7-B3/GpL16-k0 (=100) |  |  |
| heterodimerized antibody GpH7-A5/GpH7-B3 variant I336_02A/GpL16-k0 (antibody, human IgG1, kappa, Substitution in only one H chain (GpH7-B3 side); also called He Ab) heavy 1: not shown heavy 2: not shown light: DIVMTQSPLSLPVTPGEPASISCQASESLVHSNRNTYLHWYLQKPGQSPQLLIYKVSNRFSGVPDRFSGSGSGTDFTLKISRVEAEDVGVYYCSQNTHVPPTFGQGTKVEIERTVAAPSVFIFPPSDEQLKSGTASVVCLLNNFYPREAKVQWKVDNALQSGNSQESVTEQDSKDSTYSLSSTLTLSKADYEKHKVYACEVTHQGLSSPVTKSFNRGEC | 106 % of GpH7-A5/GpH7-B3/GpL16-k0 (=100) | 84.9 % of GpH7-A5/GpH7-B3/GpL16-k0 (=100) |  |  |
| heterodimerized antibody GpH7-A5/GpH7-B3 variant I336_03V/GpL16-k0 (antibody, human IgG1, kappa, Substitution in only one H chain (GpH7-B3 side); also called He Ab) heavy 1: not shown heavy 2: not shown light: DIVMTQSPLSLPVTPGEPASISCQASESLVHSNRNTYLHWYLQKPGQSPQLLIYKVSNRFSGVPDRFSGSGSGTDFTLKISRVEAEDVGVYYCSQNTHVPPTFGQGTKVEIERTVAAPSVFIFPPSDEQLKSGTASVVCLLNNFYPREAKVQWKVDNALQSGNSQESVTEQDSKDSTYSLSSTLTLSKADYEKHKVYACEVTHQGLSSPVTKSFNRGEC | 105 % of GpH7-A5/GpH7-B3/GpL16-k0 (=100) | 90.3 % of GpH7-A5/GpH7-B3/GpL16-k0 (=100) |  |  |
| heterodimerized antibody GpH7-A5/GpH7-B3 variant T335_05P/GpL16-k0 (antibody, human IgG1, kappa, Substitution in only one H chain (GpH7-B3 side); also called He Ab) heavy 1: not shown heavy 2: not shown light: DIVMTQSPLSLPVTPGEPASISCQASESLVHSNRNTYLHWYLQKPGQSPQLLIYKVSNRFSGVPDRFSGSGSGTDFTLKISRVEAEDVGVYYCSQNTHVPPTFGQGTKVEIERTVAAPSVFIFPPSDEQLKSGTASVVCLLNNFYPREAKVQWKVDNALQSGNSQESVTEQDSKDSTYSLSSTLTLSKADYEKHKVYACEVTHQGLSSPVTKSFNRGEC | 106 % of GpH7-A5/GpH7-B3/GpL16-k0 (=100) | 99.9 % of GpH7-A5/GpH7-B3/GpL16-k0 (=100) |  |  |
| GpH7-A5/GpH7-B3 variant G237_12R/GpL16-k0 (antibody, human IgG1, kappa, He Ab: alteration in the GpH7-B3 H chain only; also called He Ab) heavy 1: not shown heavy 2: not shown light: DIVMTQSPLSLPVTPGEPASISCQASESLVHSNRNTYLHWYLQKPGQSPQLLIYKVSNRFSGVPDRFSGSGSGTDFTLKISRVEAEDVGVYYCSQNTHVPPTFGQGTKVEIERTVAAPSVFIFPPSDEQLKSGTASVVCLLNNFYPREAKVQWKVDNALQSGNSQESVTEQDSKDSTYSLSSTLTLSKADYEKHKVYACEVTHQGLSSPVTKSFNRGEC |  |  | 24.2 | 2.47 |
| heterodimerized antibody GpH7-A5/GpH7-B3 variant T335_02A/GpL16-k0 (antibody, human IgG1, kappa, Substitution in only one H chain (GpH7-B3 side); also called He Ab) heavy 1: not shown heavy 2: not shown light: DIVMTQSPLSLPVTPGEPASISCQASESLVHSNRNTYLHWYLQKPGQSPQLLIYKVSNRFSGVPDRFSGSGSGTDFTLKISRVEAEDVGVYYCSQNTHVPPTFGQGTKVEIERTVAAPSVFIFPPSDEQLKSGTASVVCLLNNFYPREAKVQWKVDNALQSGNSQESVTEQDSKDSTYSLSSTLTLSKADYEKHKVYACEVTHQGLSSPVTKSFNRGEC | 103 % of GpH7-A5/GpH7-B3/GpL16-k0 (=100) | 94 % of GpH7-A5/GpH7-B3/GpL16-k0 (=100) |  |  |

The next lines start with the values.

| He/Con_1a [1] | He/Con_2b [2] | He/Con_2aR [3] [control = 100] | He_2aR/2b (IIaR/IIb) [4] | Binder |
| --- | --- | --- | --- | --- |
| 111 % of GpH7-A5/GpH7-B3/GpL16-k0 (=100) | 91 % of GpH7-A5/GpH7-B3/GpL16-k0 (=100) |  |  | heterodimerized antibody GpH7-A5/GpH7-B3 variant T335_11K/GpL16-k0 (antibody, human IgG1, kappa, Substitution in only one H chain (GpH7-B3 side); also called He Ab) heavy 1: not shown heavy 2: not shown light: DIVMTQSPLSLPVTPGEPASISCQASESLVHSNRNTYLHWYLQKPGQSPQLLIYKVSNRFSGVPDRFSGSGSGTDFTLKISRVEAEDVGVYYCSQNTHVPPTFGQGTKVEIERTVAAPSVFIFPPSDEQLKSGTASVVCLLNNFYPREAKVQWKVDNALQSGNSQESVTEQDSKDSTYSLSSTLTLSKADYEKHKVYACEVTHQGLSSPVTKSFNRGEC |
| 113 % of GpH7-A5/GpH7-B3/GpL16-k0 (=100) | 91.9 % of GpH7-A5/GpH7-B3/GpL16-k0 (=100) |  |  | heterodimerized antibody GpH7-A5/GpH7-B3 variant T335_12R/GpL16-k0 (antibody, human IgG1, kappa, Substitution in only one H chain (GpH7-B3 side); also called He Ab) heavy 1: not shown heavy 2: not shown light: DIVMTQSPLSLPVTPGEPASISCQASESLVHSNRNTYLHWYLQKPGQSPQLLIYKVSNRFSGVPDRFSGSGSGTDFTLKISRVEAEDVGVYYCSQNTHVPPTFGQGTKVEIERTVAAPSVFIFPPSDEQLKSGTASVVCLLNNFYPREAKVQWKVDNALQSGNSQESVTEQDSKDSTYSLSSTLTLSKADYEKHKVYACEVTHQGLSSPVTKSFNRGEC |
